Experimental data reported in article PMC12289918 (Nature Communications, 2025).

Target: T1, K11-HTS-Tail (KLP-11 residues 537-782) (Caenorhabditis elegans, UniProt Q19633 537-782)
T1 sequence (looked up): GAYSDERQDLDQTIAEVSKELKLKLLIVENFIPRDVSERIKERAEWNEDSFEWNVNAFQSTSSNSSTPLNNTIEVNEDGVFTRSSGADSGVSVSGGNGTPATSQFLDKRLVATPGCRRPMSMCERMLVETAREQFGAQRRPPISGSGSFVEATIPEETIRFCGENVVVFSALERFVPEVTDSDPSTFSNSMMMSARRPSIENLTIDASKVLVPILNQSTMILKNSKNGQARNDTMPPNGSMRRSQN
Test: SEC-MALS

B1: K20-HTS-Tail (KLP-20 residues 527-646) (domain or fragment, Caenorhabditis elegans, UniProt Q965T6 527-646, looked up)
chain: EDHQRQVEAMLDDIRQLRKELLLNIAIIDEYIPVEHVELIEKYVSWSEEHGDWQLKAIAYTGNNMRASAPPAKKEFSNNNQTVPMYYSYRADLGASTAEHRPRTSSKKHRASIRLQQLLT
Q: B1 was tested. Which “stoichiometry N” value did it give?
A: The value was 1.
